Measured values: patent US20190248877A1 (Hoffmann-La Roche, published 2019)

How the values were obtained:
Test in all cases: SPR Biacore T200, biotinylated TnC on SA chip, Fab as analyte, 1:1 fit
[1] = target: T1, huTNC (recombinant human TnC antigen) (human, UniProt P24821 984-1798, biotin on the C-terminal avi-tag where used biotinylated (Examples 5 and 10))
T1 sequence: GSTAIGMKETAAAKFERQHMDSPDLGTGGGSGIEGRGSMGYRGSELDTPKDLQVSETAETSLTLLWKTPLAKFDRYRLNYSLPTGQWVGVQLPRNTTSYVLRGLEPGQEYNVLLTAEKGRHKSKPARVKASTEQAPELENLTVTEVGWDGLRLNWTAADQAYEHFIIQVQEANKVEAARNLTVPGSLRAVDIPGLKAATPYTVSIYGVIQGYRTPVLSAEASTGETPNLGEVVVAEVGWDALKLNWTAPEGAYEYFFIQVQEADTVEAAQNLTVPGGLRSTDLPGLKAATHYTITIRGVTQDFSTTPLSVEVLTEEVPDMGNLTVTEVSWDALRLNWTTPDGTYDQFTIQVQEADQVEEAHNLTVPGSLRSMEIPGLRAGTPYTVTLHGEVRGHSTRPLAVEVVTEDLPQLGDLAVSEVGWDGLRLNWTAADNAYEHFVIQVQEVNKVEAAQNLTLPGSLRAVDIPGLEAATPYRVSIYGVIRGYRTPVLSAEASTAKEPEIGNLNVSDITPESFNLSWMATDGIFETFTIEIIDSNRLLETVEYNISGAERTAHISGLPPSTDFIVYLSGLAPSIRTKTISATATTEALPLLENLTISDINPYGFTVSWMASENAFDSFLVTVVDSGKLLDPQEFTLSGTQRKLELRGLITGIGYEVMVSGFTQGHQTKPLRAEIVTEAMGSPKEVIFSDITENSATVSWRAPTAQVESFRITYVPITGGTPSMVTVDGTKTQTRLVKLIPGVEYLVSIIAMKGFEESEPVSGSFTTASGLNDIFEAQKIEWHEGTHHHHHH
Method: (§1) Binding of the anti-TnC IgGs 18D4, 11C7 and the Fab fragment of anti-TnC 18D4 to human, murine and cynomolgus TnC (antigens according to Table 4) was assessed by surface plasmon resonance (SPR). All SPR experiments were performed on a Biacore T200 at 25° C. with HBS-EP as running buffer (0.01 M HEPES pH 7.4, 0.15 M NaCl, 3 mM EDTA, 0.005% Surfactant P20, Biacore, Freiburg/Germany).
(§2) A 20 μg/ml stock solution of biotinylated human, murine or cynomolgus TnC was injected on a SA chip, with the aim to immobilize up to 100 RU using the immobilization wizard function.
(§3) An additional dissociation step of 1800s was performed for the highest concentration of IgG. After each step the surface was regenerated following two sequential injections of 10 mM glycine pH2.1 for 60 s. Bulk refractive index differences were corrected for by subtracting the response obtained in a reference flow cell without TNC. Affinity and avidity were calculated using the Langmuir 1:1 kinetic model. However, as the KD for the 1:1 fitting of bivalent interactions is an apparent value only, it should only be used for comparisons.

[2] = target: T2, cynoTNC (recombinant cynomolgus TnC antigen) (cynomolgus, biotin on the C-terminal avi-tag where used biotinylated (Example 5))
T2 construct: GST may have been cleaved off by thrombin; The text says this construct lacks the C domain
T2 chain: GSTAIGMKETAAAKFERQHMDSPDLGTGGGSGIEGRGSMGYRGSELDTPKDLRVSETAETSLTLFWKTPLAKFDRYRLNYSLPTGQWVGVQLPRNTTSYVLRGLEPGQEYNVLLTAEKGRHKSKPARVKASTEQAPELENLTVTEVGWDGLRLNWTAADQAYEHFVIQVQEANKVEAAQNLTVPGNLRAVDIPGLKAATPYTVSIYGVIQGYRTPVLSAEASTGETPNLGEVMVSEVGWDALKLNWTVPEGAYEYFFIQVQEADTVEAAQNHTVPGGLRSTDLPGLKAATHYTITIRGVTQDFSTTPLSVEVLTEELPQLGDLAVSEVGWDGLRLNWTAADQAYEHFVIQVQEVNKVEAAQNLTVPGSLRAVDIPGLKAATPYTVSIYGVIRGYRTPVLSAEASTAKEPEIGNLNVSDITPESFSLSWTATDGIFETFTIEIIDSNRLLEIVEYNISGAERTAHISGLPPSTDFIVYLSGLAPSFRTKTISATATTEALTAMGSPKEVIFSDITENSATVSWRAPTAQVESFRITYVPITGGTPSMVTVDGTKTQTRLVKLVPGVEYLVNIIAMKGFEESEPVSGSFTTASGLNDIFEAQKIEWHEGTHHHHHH
Method: as §1, §2, §3

[3] = target: T3, muTNC (recombinant murine TnC antigen) (mouse, biotin on the C-terminal avi-tag where used biotinylated (Example 5))
T3 construct: GST may have been cleaved off by thrombin; The text says this construct lacks the C domain; also called mouse TnC
T3 chain: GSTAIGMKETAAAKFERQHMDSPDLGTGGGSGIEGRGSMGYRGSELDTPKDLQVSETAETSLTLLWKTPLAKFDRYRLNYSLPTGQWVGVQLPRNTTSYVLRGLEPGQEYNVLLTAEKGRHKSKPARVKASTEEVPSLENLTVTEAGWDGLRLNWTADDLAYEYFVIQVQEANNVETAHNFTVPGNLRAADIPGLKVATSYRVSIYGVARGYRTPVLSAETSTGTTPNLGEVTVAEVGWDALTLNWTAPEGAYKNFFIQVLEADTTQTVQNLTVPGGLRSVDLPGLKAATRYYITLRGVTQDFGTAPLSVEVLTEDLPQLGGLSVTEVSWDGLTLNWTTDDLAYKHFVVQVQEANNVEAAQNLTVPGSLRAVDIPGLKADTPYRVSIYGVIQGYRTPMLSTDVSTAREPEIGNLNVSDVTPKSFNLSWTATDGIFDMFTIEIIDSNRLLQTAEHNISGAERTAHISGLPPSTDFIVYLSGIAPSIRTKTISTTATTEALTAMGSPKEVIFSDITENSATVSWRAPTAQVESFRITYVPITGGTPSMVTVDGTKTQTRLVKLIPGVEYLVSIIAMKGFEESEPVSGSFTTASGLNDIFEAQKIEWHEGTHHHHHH
Method: as §1, §2, §3

B1: anti-TnC clone 18D4 Fab fragment (Fab, V domains shown)
VH: QVQLVQSGAEVKKPGSSVKVSCKASGGTFSSYAISWVRQAPGQGLEWMGGIIPIFGTANYAQKFQGRVTITADKSTSTAYMELSSLRSEDTAVYYCAKGNFYGGLDYWGQGTTVTVSS
VL: DIQMTQSPSTLSASVGDRVTITCRASQSISSWLAWYQQKPGKAPKLLIYDASSLESGVPSRFSGSGSGTEFTLTISSLQPDDFATYYCQQNKKFPSGTFGQGTKVEIK
Which results are given for B1?
Kd [1]: 1.44 nM; Kd [2]: 6.69 nM; Kd [3]: 6.5 nM
